Test results as given in patent publication US20160319287A1.
No end group written: not given here. FI = 5(6)-carboxyfluorescein

How the values were obtained:
Assay in all cases: cell-based or functional assay
[1] = target: M1^C-Trx-H6 (AceL-TerL Int^C mutant M1: N46D, L55Q) [thioredoxin: P0AA25]
[2] = target: M2^C-Trx-H6 (AceL-TerL Int^C mutant M2: S38G, N46I, N54D, L55Q) [thioredoxin: P0AA25]
[3] = target: MBP-Int^C-TycB1 with the AceL-TerL MX1 mutant (M1^C)
MBP-Int^C-TycB1 with the AceL-TerL MX1 mutant (M1^C), sequence (main, as listed by the source, change not shown): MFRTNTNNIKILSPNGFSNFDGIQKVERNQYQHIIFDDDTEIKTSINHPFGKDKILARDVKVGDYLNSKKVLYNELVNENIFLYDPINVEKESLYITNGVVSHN

M2^C-Trx-H6 (AceL-TerL Int^C mutant M2: S38G, N46I, N54D, L55Q) [thioredoxin: P0AA25], sequence (P0AA25 other isoform, or with tags, fused parts or gaps S38G N46I N54D L55Q S38G N46I N54D L55Q): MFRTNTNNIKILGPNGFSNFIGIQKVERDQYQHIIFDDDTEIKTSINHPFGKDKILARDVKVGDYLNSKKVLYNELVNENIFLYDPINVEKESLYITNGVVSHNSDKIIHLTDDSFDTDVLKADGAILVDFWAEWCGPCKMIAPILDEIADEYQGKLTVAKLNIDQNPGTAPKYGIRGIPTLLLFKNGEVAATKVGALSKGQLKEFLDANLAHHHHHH
M1^C-Trx-H6 (AceL-TerL Int^C mutant M1: N46D, L55Q) [thioredoxin: P0AA25], sequence (P0AA25 other isoform, or with tags, fused parts or gaps N46D L55Q N46D L55Q): as the sequence (P0AA25 other isoform, or with tags, fused parts or gaps S38G N46I N54D L55Q S38G N46I N54D L55Q) above, with G13S, I21D, D29N counted along it

splicing rate at 37° C. against the wild-type [1] | splicing rate at 37° C. against the wild-type [2] | splicing rate at 8° C. against the M86 DnaB mutant intein [3] | splicing rate at 8° C. against the unevolved wild-type AceL-TerL intein [3] | splicing yield at 8° C. [3] | Binder
29 fold faster | 56 fold faster |  |  |  | {FI}-KKEFECVSGDTMVETEDGKIKIEDLYKRLA [pepM3^N (FI-KKEFE-IntN with the M3 Int^N, Y3S)]
 |  | 13 fold higher | 15 fold higher | 80 to 95% | {FI}-KKEFECVYGDTMVETEDGKIKIEDLYKRLA [pepWT^N (FI-KKEFE-IntN), synthetic peptide with the Int^N of the AceL-TerL intein]
